Experimental data: paper PMC9579014 (2022)

T1: legumain AEP catalytic domain (Homo sapiens, UniProt Q99538)
T1 chain: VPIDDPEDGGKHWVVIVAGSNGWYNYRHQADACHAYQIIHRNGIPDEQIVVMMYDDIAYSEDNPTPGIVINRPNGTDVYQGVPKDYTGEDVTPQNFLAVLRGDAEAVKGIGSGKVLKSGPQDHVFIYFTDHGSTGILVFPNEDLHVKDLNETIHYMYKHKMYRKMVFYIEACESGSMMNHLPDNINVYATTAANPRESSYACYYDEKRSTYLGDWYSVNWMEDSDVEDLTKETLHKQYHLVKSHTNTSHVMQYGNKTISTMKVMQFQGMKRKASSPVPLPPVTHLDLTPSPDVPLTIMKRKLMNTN


Biological target: T1, legumain AEP catalytic domain
Test: enzyme inhibition assay (AAN-AMC)
Conditions: not given

Clitocypin, sequence (Q9P4A2 whole entry): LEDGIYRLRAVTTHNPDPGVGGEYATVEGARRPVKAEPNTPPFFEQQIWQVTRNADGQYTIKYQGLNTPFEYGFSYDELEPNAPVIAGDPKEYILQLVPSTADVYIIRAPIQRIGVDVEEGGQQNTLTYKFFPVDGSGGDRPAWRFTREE

| Molecule | Ki [nM] |
| --- | --- |
| macrocypin 1a (protein) GFEDGFYTILHLAEGQHPNSKIPGGMYASSKDGKDVPVTAEPLGPQSKIRWWIARDPQAGDDMYTITEFEIDNSIPGQWSRSPVETEVPVYLYDRIKAEETGYTCAWRIQPADHGADGVYHIVGNVRIGSTDWADLREEYGEPQVYMKPVPVIPNVYIPRWFILGYEE | 147 |
| macrocypin 1a (protein) GFEDGFYTILHLAEGQHPNSKIPGGMYASSKDGKDVPVTAEPLGPQSKIRWWIARDPQAGDDMYTITEFRIDNSIPGQWSRSPVETEVPVYLYDRIKAEETGYTCAWRIQPADHGADGVYHIVGNVRIGSTDWADLREEYGEPQVYMKPVPVIPNVYIPRWFILGYEE | 2.18 |

Other lines, results leading:

| Ki [nM] | Molecule |
| --- | --- |
| 6690 | clitocypin 2 (protein) MASLEDGIYRLRAVTTHNPDPGVGGEYATVEGARRPVKAEPNTPPFFAAQAWQVTRNADGQYTIKYQGLNTPFEYGFSYDELEPNAPVIAGDPKEYILQLVPSTADVYIIRAPIQRIGVDVEVGVQGNTLVYKFFPVDGSGGDRPAWRFTRE |
| 183 | macrocypin 1a (protein) GFEDGFYTILHLAEGQHPNSKIPGGMYASSKDGKDVPVTAEPLGPQSKIRWWIARDPQAGDDMYTITEFRIDNSIPGQWSRSPVETEVPVYLYDAIKAEETGYTCAWRIQPADHGADGVYHIVGNVRIGSTDWADLREEYGEPQVYMKPVPVIPNVYIPRWFILGYEE |
| 79 | clitocypin 2 (protein) MASLEDGIYRLRAVTTHNPDPGVGGEYATVEGARRPVKAEPNTPPFFEQQIWQVTRNADGQYTIKYQGLNTPFEYGFSYDELEPNAPVIAGDPKEYILQLVPSTADVYIIRAPIQRIGVDVEVGVQGNTLVYKFFPVDGSGGDRPAWRFTRE |

Biological target: legumain (Homo sapiens) (UniProt Q99538)
Test: not given
Conditions: cited from earlier work

| Molecule | Ki [nM] |
| --- | --- |
| Clitocypin (from UniProt Q9P4A2) | 21.5 |
